Measured values published in the supplement of paper PMC7877785.
± gives the uncertainty stated by the source.

Test: self-splicing fitness, log relative to wild type (ln ratio); higher = more splicing; Tetrahymena group I intron in knt gene, E. coli kanamycin selection, DiMSum; sequences stand for … in CUCUCU…GGAGGGAAAAGUUAUCAGGCAUGCACCUGGUAGCUAGUCUUUAAACCAAUAGAUUGCAUCGGUUUAAAAGGCAAGACCGUCAAAUUGCGGGAAAGGGGUCAACAGCCGUUCAGUACCAAGUCUCAGGGGAAACUUUGAGAUGGCCUUGCAAAGGGUAUGGUAAUAAGCUGACGGACAUGGUCCUAACCACGCAGCCAAGUCCUAAGUCAACAGAUCUUCUGUUGAUAUGGAUGCAGUUCACAGACUAAAUGUCGGUCGGGGAAGAUGUAUUCUUCUCAUAAGAUAUAGUCGGACCUCUCCUUAAUGGGAGCUAGCGGAUGAAGUGAUGCAACACUGGAGCCGCUGGGAACUAAUUUGUAUGCGAAAGUAUAUUGAUUAGUUUUGGAGUACUCGUGGUCG
Summary of the method: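 Library with all eight P1ex-region intron nucleotides randomised, intron inside the knt kanamycin-resistance gene on pET-22b(+), in E. coli BL21(DE3). Cells grew overnight at 37°C or 30°C on LB agar with or without 25 μg/mL kanamycin (plus 100 μg/mL carbenicillin, 50 μM IPTG, 0.2% rhamnose), in six replicate transformations. Pooled colonies were amplicon-sequenced on Illumina HiSeq 2500. DiMSum fitness is the error-weighted combination of wild-type-normalised replicate fold changes, kanamycin versus none.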

Sequence	self-splicing fitness (ln) (30 °C)	self-splicing fitness (ln) (37 °C)
UUAAAGCAAUAUUACGCGGG	-0.482 ± 0.11	-1.29 ± 0.13
UUAAAGCAAUAUUACGCGUA	-0.515 ± 0.12	0.118 ± 0.14
UUAAAGCAAUAUUACGCUCG	0.194 ± 0.12	0.654 ± 0.15
UUAAAGCAAUAUUACGGCCG	0.199 ± 0.14	0.0811 ± 0.16
UUAAAGCAAUAUUACGGGUA	-0.431 ± 0.069	0.283 ± 0.08
UUAAAGCAAUAUUACGGUAC	-2.58 ± 0.22	-1.06 ± 0.22
UUAAAGCAAUAUUACGUUAA	-0.426 ± 0.071	0.14 ± 0.091
UUACAGCAAUAUUACGAAUG	-1.46 ± 0.094	-0.991 ± 0.14
UUACAGCAAUAUUACGCAAU	-1.23 ± 0.15	-2.23 ± 0.4
UUACAGCAAUAUUACGCACC	-2.69 ± 0.21	-0.981 ± 0.23
UUACAGCAAUAUUACGCACG	-1.13 ± 0.12	0.579 ± 0.13
UUACAGCAAUAUUACGCCAU	-2.91 ± 0.25	-2.48 ± 0.27
UUACAGCAAUAUUACGCCUC	-3.31 ± 0.38	-2.03 ± 0.38
UUACAGCAAUAUUACGCGCC	-2.36 ± 0.14	-0.896 ± 0.2
UUACAGCAAUAUUACGCUAU	-3.74 ± 0.25	-2.33 ± 0.21
UUACAGCAAUAUUACGGAAC	-2.88 ± 0.26	-1.88 ± 0.42
UUACAGCAAUAUUACGGACA	-1.02 ± 0.11	-0.885 ± 0.13
UUACAGCAAUAUUACGGAUA	-2.25 ± 0.21	-0.725 ± 0.12
UUACAGCAAUAUUACGGAUC	-4.12 ± 0.34	-2.26 ± 0.2
UUACAGCAAUAUUACGGCCA	-1.02 ± 0.12	0.128 ± 0.13
UUACAGCAAUAUUACGGCGC	-2.88 ± 0.18	-0.508 ± 0.13
UUACAGCAAUAUUACGUCGA	-0.899 ± 0.087	0.0863 ± 0.093
UUACAGCAAUAUUACGUGAA	-1.16 ± 0.054	-0.338 ± 0.066
UUAGAGCAAUAUUACGACUG	-1.13 ± 0.096	0.345 ± 0.14
UUAGAGCAAUAUUACGACUU	-1.32 ± 0.13	-1.77 ± 0.19

Sequence	self-splicing fitness (ln) (30 °C)	self-splicing fitness (ln) (37 °C)
UUAGAGCAAUAUUACGAGCA	-2.27 ± 0.42	-1.09 ± 0.32
UUAGAGCAAUAUUACGAGUC		-2.53 ± 0.49
UUAGAGCAAUAUUACGAUAG	-0.594 ± 0.1	-0.147 ± 0.14
UUAGAGCAAUAUUACGCAUG	-1.12 ± 0.11	-0.298 ± 0.12
UUAGAGCAAUAUUACGCGCA	-0.808 ± 0.12	-0.112 ± 0.16
UUAGAGCAAUAUUACGCUAC	-2.9 ± 0.41	
UUAGAGCAAUAUUACGCUGU	-3.47 ± 0.36	-1.56 ± 0.21
UUAGAGCAAUAUUACGGUAC	-3.85 ± 0.26	-2.79 ± 0.4
UUAGAGCAAUAUUACGGUGU	-2.05 ± 0.35	-2.19 ± 0.3
UUAGAGCAAUAUUACGUACU	-3.2 ± 0.34	-1.81 ± 0.31
UUAGAGCAAUAUUACGUAUA	-3.64 ± 0.43	-0.846 ± 0.27
UUAGAGCAAUAUUACGUCGC	-3.05 ± 0.47	-1.76 ± 0.37
UUAGAGCAAUAUUACGUGAU	-3.95 ± 0.28	-2.52 ± 0.22
UUAGAGCAAUAUUACGUGGA	-2.18 ± 0.13	-1.6 ± 0.12
UUAGAGCAAUAUUACGUUGC	-2.58 ± 0.22	-1.25 ± 0.33
UUAUAGCAAUAUUACGAAUU	-3.24 ± 0.33	-0.681 ± 0.25
UUAUAGCAAUAUUACGACAG	-1.09 ± 0.16	-0.548 ± 0.21
UUAUAGCAAUAUUACGAGCA	-2.02 ± 0.17	-1.49 ± 0.17
UUAUAGCAAUAUUACGAGCG	-0.835 ± 0.28	-0.754 ± 0.29
UUAUAGCAAUAUUACGAUCU	-1.74 ± 0.32	-1.17 ± 0.25
UUAUAGCAAUAUUACGCCAG	-1.64 ± 0.25	-0.566 ± 0.27
UUAUAGCAAUAUUACGCGGA	-1.6 ± 0.12	-0.96 ± 0.14
UUAUAGCAAUAUUACGCUAG	-1.92 ± 0.2	-0.0618 ± 0.24
UUAUAGCAAUAUUACGCUUG	-1.46 ± 0.19	-0.162 ± 0.22
UUAUAGCAAUAUUACGGAAA	-2.13 ± 0.22	-1.67 ± 0.23

Sequence	self-splicing fitness (ln) (30 °C)	self-splicing fitness (ln) (37 °C)
UUAUAGCAAUAUUACGGAAU	-3.67 ± 0.36	
UUAUAGCAAUAUUACGGCCC		-0.921 ± 0.39
UUAUAGCAAUAUUACGGUUC	-2.77 ± 0.23	-2.16 ± 0.25
UUAUAGCAAUAUUACGUAAA	-1.34 ± 0.19	-1.58 ± 0.22
UUAUAGCAAUAUUACGUCUG	-0.366 ± 0.11	-0.511 ± 0.13
UUAUAGCAAUAUUACGUUUC	-4.48 ± 0.3	-3.31 ± 0.32
UUCAAGCAAUAUUACGACAA	0.0996 ± 0.083	-0.304 ± 0.085
UUCAAGCAAUAUUACGACGG	-1.5 ± 0.11	-0.143 ± 0.12
UUCAAGCAAUAUUACGAUUU	-3.24 ± 0.21	-1.12 ± 0.17
UUCAAGCAAUAUUACGCAAG	-2.1 ± 0.2	-0.676 ± 0.17
UUCAAGCAAUAUUACGCCAA	-0.664 ± 0.11	-0.538 ± 0.11
UUCAAGCAAUAUUACGCCAU	-3.57 ± 0.4	-2.88 ± 0.43
UUCAAGCAAUAUUACGCCGG	-0.231 ± 0.097	-0.469 ± 0.13
UUCAAGCAAUAUUACGCGAG	-2.19 ± 0.096	-1.33 ± 0.1
UUCAAGCAAUAUUACGCGGG	-3.35 ± 0.28	-1.95 ± 0.21
UUCAAGCAAUAUUACGCUGA	-2.5 ± 0.16	-2.33 ± 0.21
UUCAAGCAAUAUUACGCUGU	-2.98 ± 0.17	-1.19 ± 0.14
UUCAAGCAAUAUUACGGACG	-1.48 ± 0.15	-0.868 ± 0.18
UUCAAGCAAUAUUACGGGUA	-0.67 ± 0.085	-0.182 ± 0.08
UUCAAGCAAUAUUACGGUGA	-0.763 ± 0.093	0.168 ± 0.092
UUCAAGCAAUAUUACGUGUA	-1.11 ± 0.056	-0.453 ± 0.059
UUCAAGCAAUAUUACGUGUG	-1.25 ± 0.056	-0.551 ± 0.07
UUCAAGCAAUAUUACGUGUU	-3.23 ± 0.13	-1.72 ± 0.11
UUCAAGCAAUAUUACGUUGC		-3.55 ± 0.46
UUCAAGCAAUAUUACGUUUA	-1.49 ± 0.087	-0.461 ± 0.082

Sequence	self-splicing fitness (ln) (30 °C)	self-splicing fitness (ln) (37 °C)
UUCCAGCAAUAUUACGAACA	-1.42 ± 0.21	-0.887 ± 0.17
UUCCAGCAAUAUUACGACAA	-0.945 ± 0.13	0.128 ± 0.16
UUCCAGCAAUAUUACGACAU	-2.874 ± 0.018	-1.61 ± 0.035
UUCCAGCAAUAUUACGAGAA	-1.79 ± 0.17	-0.442 ± 0.16
UUCCAGCAAUAUUACGAGGU	-1.96 ± 0.17	-1.87 ± 0.16
UUCCAGCAAUAUUACGAGUU	-3.21 ± 0.13	-1.6 ± 0.092
UUCCAGCAAUAUUACGAUAA	0.0765 ± 0.06	0.459 ± 0.071
UUCCAGCAAUAUUACGAUGC	-3.4 ± 0.23	-2.79 ± 0.23
UUCCAGCAAUAUUACGCCCC	-2.4 ± 0.25	
UUCCAGCAAUAUUACGCCCG	-1.33 ± 0.15	-1.23 ± 0.17
UUCCAGCAAUAUUACGCCGA	-0.126 ± 0.13	0.309 ± 0.16
UUCCAGCAAUAUUACGCCGG	-3.4 ± 0.33	-2.98 ± 0.48
UUCCAGCAAUAUUACGCGCU	-3.9 ± 0.3	
UUCCAGCAAUAUUACGCGGC	-3.73 ± 0.47	-1.38 ± 0.4
UUCCAGCAAUAUUACGCUAG	-2.89 ± 0.17	-1.96 ± 0.2
UUCCAGCAAUAUUACGCUCU	-3.04 ± 0.17	-1.26 ± 0.14
UUCCAGCAAUAUUACGGAAA	-1.86 ± 0.13	-1.34 ± 0.11
UUCCAGCAAUAUUACGGCCG	-2.49 ± 0.29	-0.492 ± 0.24
UUCCAGCAAUAUUACGGCGA	-0.331 ± 0.076	-0.0354 ± 0.097
UUCCAGCAAUAUUACGGCGU	-1.42 ± 0.079	-1.19 ± 0.091
UUCCAGCAAUAUUACGGUGA	-0.226 ± 0.061	0.234 ± 0.077
UUCCAGCAAUAUUACGUAAC	-2.44 ± 0.25	-2.08 ± 0.38
